From PMC9071374, “Identification of a WRKY transcriptional activator from Camellia sinensis that regulates methylated EGCG biosynthesis”

Molecular target: CsWRKY57like (WRKY domain) (Camellia sinensis, UniProt A0A4S4EXI7 145-222)
Test: EMSA; excess unlabeled probe abolishes binding; Biotin-labeled probes, 6% native PAGE; buffer, salt, pH and temperature not stated (cited refs 48, 49)
Conditions: protein: recombinant; tags: GST (pGEX-4T); label: biotin

Chain of CsWRKY57like (WRKY domain) (A0A4S4EXI7 entry or part of it): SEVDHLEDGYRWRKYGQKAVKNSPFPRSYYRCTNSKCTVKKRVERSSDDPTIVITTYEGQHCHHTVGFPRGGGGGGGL

Row | Binder | binding result
1 | CCoAOMT promoter W-box probe (dsDNA) DNA 1: TTTACTTAAAATATGGATTTTGACTTGTGATATAAAAAATTATAAATATTTT DNA 2: AAAATATTTATAATTTTTTATATCACAAGTCAAAATCCATATTTTAAGTAAA | binds
2 | CsDFR promoter W-box probe (dsDNA) DNA 1: GCCCAAGCTCATATAGTCAAAAAAGTCAAAAAGCCAAAAAGTCAACCCACTTCCC DNA 2: GGGAAGTGGGTTGACTTTTTGGCTTTTTGACTTTTTTGACTATATGAGCTTGGGC | binds
